From patent US20250002563A1 (UNIVERSITY OF PITTSBURGH OF THE COMMONWEALTH SYSTEM OF …, published 2025)
Changes are numbered by the printed parent chain.

B1: 4P-92 (VHH)
VHH: QVQLVESGGGLVQTGGSLRLSCAVSGYTFSTFPTAWFRQAPGKEREFVAGIRWNGGSRDYTEYADFVKGRFTISRDNAKNMVYLQMISLKPEDTALYYCAASHGVIDGTSANDYRYWGQGTQVTVSS
B2: 4P-44 (VHH)
VHH: DVQLVESGGGLVQAGGSLRLSCAASGRTFSRYAAGWFRQAPGKEREFVAVIEWNGDSAYYADSVKGRFTISRDNAKNTVYLQMNRLKPEDTAVYICAVGGNHYSRSKYYTADEYDYWGQGTQVTVSS
B3: 4P-42 (VHH)
VHH: B2 VHH with D1H, N54D, S57N, R105P, S106N
B4: 4P-71 (VHH)
VHH: B2 VHH with D1H, Y32F, E52D, D56G, E89G, V98I, S104D, R105P, K107R
B5: 5p-34 (VHH)
VHH: B2 VHH with D1Q, A23T, A61T, V64A, A75T, V98I, R105P, T110I
B6: 5p-117 (VHH)
VHH: DVQLVESGGGLVQAGESLRLSCAASGRTFRNFAAGWFRQTPGKDREFVAVIEYNGDSAYYADSVKGRFTISRDNAKNTVYLQMNRLKPGDTAVYICAIGGNHYDPSKYYIADEYDYWGQGTQVTVSS
B7: 5p-119 (VHH)
VHH: B2 VHH with D1Q, G26R, R31N, D56E, V93I, V98I, T110I
B8: 5p-120 (VHH)
VHH: B2 VHH with D1H, N54D, T110N, A111L
B9: 5p-121 (VHH)
VHH: B2 VHH with E46S, N54D, S57T, A61S, V79L, R105S, T110I
B10: 5p-59 (VHH)
VHH: QVQLVESGGGLVQAGGSLRLSCAVSGRTISTFGMAWFRQAPGKVREFVATITRDEDLTLYADSVKGRFTISRDTAKNTVFLQMNSLKIEDTALYYCAVRRDDSWGYSRQSIEYDYWGQGTQVTVSS
B11: 5p-1 (VHH)
VHH: QVQLVESGGGLVQAGGSLRLSCAVSGRTGNRWPMGWFRQAPGKEREFVATISWSDSRTYYADSVKGRFTISRDNAKNTVFLQMASLKPEDTAVYYCAAAHARVYGANWSSSNRDDYDSWGQGTQVTVSS
B12: 4P-1 (VHH)
VHH: B11 VHH with Q1D, V24A, N30S, W32Y, D114Y
B13: 5p-2 (VHH)
VHH: B11 VHH with N30S, S71A, A101G, S111T, D114Y
B14: 5p-5 (VHH)
VHH: B11 VHH with H100T
B15: 5p-25 (VHH)
VHH: HVQLVESGGGLVQAGGSLRLSCAASGHISSRYAMAWFRQGPGKERDFVAGMSSGASTFYAESVKGRFTLSRDNAKNAMYLQMNSLKPEDTAVYYCAADSSPLRYGLSYSSNRYDYWGQGTQVTVSS
B16: 5p-26 (VHH)
VHH: DVQLVESGGGLVQAGGSLRLSCAASGRTLRSYNMGWFRQPPGKEREFVAALSWTGLGTYYADSVKGRFTISRDITKNTLYLQMDSLQPEDTANYYCAADSTLDRLHSAESDYRYWGQGTQVTVSS
B17: 4P-46 (VHH)
VHH: HVQLVESGGGLVQAGGSLRLSCAASRIFSTSAMGWFRQAPGKEREFVAAISWSGTNTHYADSVKGRFAISTDNAKNTVYLQMNSLKPEDTAVYYCAQGGWGISQPIEVDYWGKGTQVTVSS
B18: 4P-47 (VHH)
VHH: B17 VHH with S25D, R26A, I27R, T55A, S62T, A68T, N73T, S103T, E107S
B19: 5p-37 (VHH)
VHH: B17 VHH with H1Q, A60T, S62P, N76S, S103R
B20: 5p-124 (VHH)
VHH: B17 VHH with G16D, T55G, T57V, A60L, T71A, A74S, N76S, Y79F, S103R, P105V
B21: 5p-125 (VHH)
VHH: B17 VHH with G16D, S62P, I102L, S103R
B22: 5p-127 (VHH)
VHH: B17 VHH with H1E, N56D, D61N, N73A, K86E, I102V, S103R, I106V
B23: 5p-128 (VHH)
VHH: B17 VHH with E45Q, A49G, I50T, S51D, T57I, I102V
B24: 5p-13 (VHH)
VHH: HVQLVESGGGLVQPGGSLRLSCVASGLTFSRYTMAWFRQAPGKDRIFVAAVSKPGGSTYYADSVKGRFTISRDNAKNTVYLQMNSLKPDDTAVYSCAADLTVLLTANPAHYNYWGHGTQVTVSS
B25: 5p-14 (VHH)
VHH: B24 VHH with H1Q, D44E, I46V, M83T, N84S, S85R, K87N, A109G, N112K, H116Q
B26: 5p-40 (VHH)
VHH: B24 VHH with H1D, G16D, K76Q, D99G, H116Q
B27: 5p-47 (VHH)
VHH: DVQLVESGGGLVQAGGSLRLSCAASGRTFTFNRFAMGWFRQAPEKEREFVAAISRTGRSTEYADSVKGRFAISRDNTKNTVYLQMNSLKPEDTAVYYCAALEAPLLHLIATQRRQYEYWGQGTQVTVSS
B28: 5p-58 (VHH)
VHH: HVQLVESGGGLVQAGESLRLLCVASGSIDSINAMGWFRQAPGKQRELVASISNMHTTMYAESVKGRFTISRDNFKNTADLQMNSLKPEDTAIYFCNLRQGCSYNGCDEYWGQGTQVTVSS
B29: 5p-165 (VHH)
VHH: B28 VHH with L21S, D29S, M54I, M58L, N73T, F74A, N83D, F94Y, G100D
B30: 5p-167 (VHH)
VHH: B28 VHH with H1Q, E16G, F74A, G100R
B31: 5p-61 (VHH)
VHH: QVQLVESGGGLVQAGGSLRLACAGSGGTFSSYIMAWFHQAPGKEREFIAGISKTGSDTYYADSVKGRFTISRDNAKNTVYLQMNSLKPEDTAVYYCAARRGPLITTSRLHYDFWGQGTQVTVSS
B32: 5p-64 (VHH)
VHH: QVQLVESGGGLVQAGGSLRLSCAASGRTFSTYAMAWFRQAPGKEREFVAGVARSADTTYYGDSVKGRFTISRDNAKNEVNLQMSSLKPEDTAVYYCAARSVIQYGIVPGNDFHYEYWGQGTQVTVSS
notes: class V psNb
B33: 5p-63 (VHH)
VHH: DVQLVESGGGLVQAGGSLRLSCAASGRSFSTYAMGWFRQAPGKEREFVAGVARSASTTYYTDSVKGRFTISRDNAKNEVYLQMNSLKPEDTAVYYCAARSVIQDTVVPGNPFHYEYWGQGTQVTVSS
B34: 5p-175 (VHH)
VHH: B32 VHH with G105S
B35: 5p-3 (VHH)
VHH: QVQLVESGGGLVQAGDSLRLSCAASGRTISTFPMGWFRQAPGKEREFVATITRTGFGTYYSDSVKGRFTISRDNAKNTVFLQMNSLKPEDTALYYCAAAKTTDWVTRAPREMHEYAYWGQGTQVTVSS
B36: 5p-68 (VHH)
VHH: QVQLVESGGGLVQAGGSLRLSCVASGRTFSTSHMGWFRQAPGKEREFVAVISRSGSSTLDADSVKGRFTISRDNAKNTVYLQMNSLKPEDTAVYYCAGSRTAGLTSNRFLYDSWGQGTQVTVSS

The binders below were run against RBDSARS-CoV (SARS-CoV S protein residues 318-510, C-terminal His-tag) (SARS-CoV, UniProt P59594 318-510) (assay: ELISA).

First: B1
Second: B2
The IC50 of the first is higher: 1000 to 8000 nM for the first, 100 to 1000 nM for the second. The second is the more potent here.

Compared with B3, B4 is higher in IC50: under 10 nM for the first, 10 to 100 nM for the second. The first is the more potent here.

B5 and B6 cannot be ordered by IC50: under 10 nM for the first, under 10 nM for the second.

B7 and B8 cannot be ordered by IC50: under 10 nM for the first, under 10 nM for the second.

Compared with B9, B10 is higher in IC50: under 10 nM for the first, over 8000 nM for the second. The first is the more potent here.

First: B11
Second: B12
The IC50 of the first is lower: 100 to 1000 nM for the first, 1000 to 8000 nM for the second. The first is the more potent here.

B13 and B14 fall in the same range of IC50: 10 to 100 nM for the first, 10 to 100 nM for the second.

Going from B15 to B16, the IC50 rises from under 10 nM to over 8000 nM.

First: B17
Second: B18
The IC50 of the first is higher: 10 to 100 nM for the first, under 10 nM for the second.

Compared with B19, B20 is lower in IC50: 10 to 100 nM for the first, under 10 nM for the second.

First: B21
Second: B22
The IC50 of the first is higher: 10 to 100 nM for the first, under 10 nM for the second.

First: B23
Second: B24
The IC50 of the first is higher: 10 to 100 nM for the first, under 10 nM for the second.

B25 and B26 cannot be ordered by IC50: under 10 nM for the first, under 10 nM for the second.

B27 and B28 fall in the same range of IC50: 1000 to 8000 nM for the first, 1000 to 8000 nM for the second.

First: B29
Second: B30
The IC50 of the first is lower: 10 to 100 nM for the first, over 8000 nM for the second.

First: B31
Second: B32
The IC50 of the first is higher: 10 to 100 nM for the first, under 10 nM for the second.

B33 and B34 cannot be ordered by IC50: under 10 nM for the first, under 10 nM for the second.

B35 and B36 fall in the same range of IC50: 10 to 100 nM for the first, 10 to 100 nM for the second.

The binders below were run against RBDSARS-CoV-2 (SARS-CoV-2 S protein residues 319-539, C-terminal His-tag) (SARS-CoV-2, UniProt P0DTC2 319-539) (assay: ELISA).

B1 and B2 cannot be ordered by IC50: under 10 nM for the first, under 10 nM for the second.

B3 and B4 cannot be ordered by IC50: under 10 nM for the first, under 10 nM for the second.

B5 and B6 cannot be ordered by IC50: under 10 nM for the first, under 10 nM for the second.

B7 and B8 cannot be ordered by IC50: under 10 nM for the first, under 10 nM for the second.

B9 and B10 cannot be ordered by IC50: under 10 nM for the first, under 10 nM for the second.

B11 and B12 fall in the same range of IC50: 10 to 100 nM for the first, 10 to 100 nM for the second.

B13 and B14 fall in the same range of IC50: 10 to 100 nM for the first, 10 to 100 nM for the second.

B15 and B16 cannot be ordered by IC50: under 10 nM for the first, under 10 nM for the second.

B17 and B18 cannot be ordered by IC50: under 10 nM for the first, under 10 nM for the second.

B19 and B20 cannot be ordered by IC50: under 10 nM for the first, under 10 nM for the second.

B21 and B22 cannot be ordered by IC50: under 10 nM for the first, under 10 nM for the second.

B23 and B24 cannot be ordered by IC50: under 10 nM for the first, under 10 nM for the second.

B25 and B26 cannot be ordered by IC50: under 10 nM for the first, under 10 nM for the second.

B27 and B28 cannot be ordered by IC50: under 10 nM for the first, under 10 nM for the second.

B29 and B30 cannot be ordered by IC50: under 10 nM for the first, under 10 nM for the second.

B31 and B32 cannot be ordered by IC50: under 10 nM for the first, under 10 nM for the second.

B33 and B34 cannot be ordered by IC50: under 10 nM for the first, under 10 nM for the second.

B35 and B36 cannot be ordered by IC50: under 10 nM for the first, under 10 nM for the second.
